Patent US20060148057

How the values were obtained:
[1] = molecular target: endogenous ASK1 of bovine aorta endothelial cells (BAEC), A0AAA9
[2] = molecular target: GST-SOCS3-N (1-45aa) [GST: P08515]
[3] = molecular target: GST-SOCS3 (full-length) [GST: P08515]
[4] = molecular target: GST-SOCS3-DC (1-138aa, deletion of the C-terminal SOCS box) [GST: P08515]

B1: Flag-tagged Trx-WT (protein)
chain: MVKQIESKTAFQEALDAAGDKLVVVDFSATWCGPCKMIKPFFHSLSEKYSNVIFLEVDVDDCQDVASECEVKCMPTFQFFKKGQKVGEFSGANKEKLEATINELV
In the case of B1, the “ASK1 ubiquitination and degradation (Western blot; IP anti-ASK1, blot anti-Ub)” value [1] is reported as “Trx expression significantly increased ASK1 ubiquitination” and the “ASK1 ubiquitination and degradation (Western blot with anti-Flag)” value (Flag-ASK1-ΔN, Q99683) is reported as “expression of Trx did not induce ubiquitination and degradation of ASK1 -ΔN, a mutant ASK1 lacking the N-terminal Trx-binding domain”.

B2: HA-tagged ASK1-WT (protein)
chain: MSTEADEGITFSVPPFAPSGFCTIPEGGICRRGGAAAVGEGEEHQLPPPPPGSFWNVESAAAPGIGCPAATSSSSATRGRGSSVGGGSRRTTVAYVINEASQGQLVVAESEALQSLREACETVGATLETLHFGKLDFGETTVLDRFYNADIAVVEMSDAFRQPSLFYHLGVRESFSMANNIILYCDTNSDSLQSLKEIICQKNTMCTGNYTFVPYMITPHNKVYCCDSSFMKGLTELMQPNFELLLGPICLPLVDRFIQLLKVAQASSSQYFRESILNDIRKARNLYTGKELAAELARIRQRVDNIEVLTADIVINLLLSYRDIQDYDSIVKLVETLEKLPTFDLASHHHVKFHYAFALNRRNLPGDRAKALDIMIPMVQSEGQVASDMYCLVGRIYKDMFLDSNFTDTESRDHGASWFKKAFESEPTLQSGINYAVLLLAAGHQFESSFELRKVGVKLSSLLGKKGNLEKLQSYWEVGFFLGASVLANDHMRVIQASEKLFKLKTPAWYLKSIVETILIYKHFVKLTTEQPVAKQELVDFWMDFLVEATKTDVTVVRFPVLILEPTKIYQPSYLSINNEVEEKTISIWHVLPDDKKGIHEWNFSASSVRGVSISKFEERCCFLYVLHNSDDFQIYFCTELHCKKFFEMVNTITEEKGRSTEEGDCESDLLEYDYEYDENGDRVVLGKGTYGIVYAGRDLSNQVRIAIKEIPERDSRYSQPLHEEIALHKHLKHKNIVQYLGSFSENGFIKIFMEQVPGGSLSALLRSKWGPLKDNEQTIGFYTKQILEGLKYLHDNQIVHRDIKGDNVLINTYSGVLKISDFGTSKRLAGINPCTETFTGTLQYMAPEIIDKGPRGYGKAADIWSLGCTIIEMATGKPPFYELGEPQAAMFKVGMFKVHPEIPESMSAEAKAFILKCFEPDPDKRACANDLLVDEFLKVSSKKKKTQPKLSALSAGSNEYLRSISLPVPVLVEDTSSSSEYGSVSPDTELKVDPFSFKTRAKSCGERDVKGIRTLFLGIPDENFEDHSAPPSPEEKDSGFFMLRKDSERRATLHRILTEDQDKIVRNLMESLAQGAEEPKLKWEHITTLIASLREFVRSTDRKIIATTLSKLKLELDFDSHGISQVQVVLFGFQDAVNKVLRNHNIKPHWMFALDSIIRKAVQTAITILVPELRPHFSLASESDTADQEDLDVEDDHEEQPSNQTVRRPQAVIEDAVATSGVSTLSSTVSHDSQSAHRSLNVQLGRMKIETNRLLEELVRKEKELQALLHRAIEEKDQEIKHLKLKSQPIEIPELPVFHLNSSGTNTEDSELTDWLRVNGADEDTISRFLAEDYTLLDVLYYVTRDDLKCLRLRGGMLCTLWKAIIDFRNKQT
With B2 the “phosphorylation in an in vitro kinase assay” value (“phosphorylation” for short) [2] was “only the full-length GST-SOCS3 was phosphorylated by ASK1”, the “phosphorylation” value [3] was “only the full-length GST-SOCS3 was phosphorylated by ASK1” and the “phosphorylation” value [4] was “only the full-length GST-SOCS3 was phosphorylated by ASK1”.
